Experimental data as given in patent US20260193335A1 (ZOETIS SERVICES, published 2026).
Residue numbers refer to the chain shown, from its start. Numbers in names are those of the source. Read-outs that look alike come from different tables or passages of the source.

T1: NGF (target of felinized anti-NGF antibodies mAb2 and mAb3)
T1 chain: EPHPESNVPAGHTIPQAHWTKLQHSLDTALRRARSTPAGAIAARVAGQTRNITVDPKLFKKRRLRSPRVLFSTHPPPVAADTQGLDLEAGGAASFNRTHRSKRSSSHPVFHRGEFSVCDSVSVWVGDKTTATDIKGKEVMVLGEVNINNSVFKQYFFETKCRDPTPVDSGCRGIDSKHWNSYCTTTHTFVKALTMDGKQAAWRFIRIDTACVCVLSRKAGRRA

B1: mAb2 (felinized anti-NGF antibody) wild-type, feline IgG1a (antibody, part only; not given: Anti-NGF heavy and light variable domains, part only)
heavy, part: ASTTAPSVFPLAPSCGTTSGATVALACLVLGYFPEPVTVSWNSGALTSGVHTFPAVLQASGLYSLSSMVTVPSSRWLSDTFTCNVAHPPSNTKVDKTVRKTDHPPGPKPCDCPKCPPPEMLGGPSIFIFPPKPKDTLSISRTPEVTCLVVDLGPDDSDVQITWFVDNTQVYTAKTSPREEQFNSTYRVVSVLPILHQDWLKGKEFKCKVNSKSLPSPIERTISKAKGQPHEPQVYVLPPAQEELSRNKVSVTCLIKSFHPPDIAVEWEITGQPEPENNYRTTPPQLDSDGTYFVYSKLSVDRSHWQRGNTYTCSVSHEALHSHHTQKSLTQSPGK
B2: mAb2 (felinized anti-NGF antibody) S428L, feline IgG1a (antibody, part only; not given: Anti-NGF heavy and light variable domains, part only)
heavy, part: B1 heavy, part with S316L
B3: mAb6 (felinized anti-TGFβ antibody of Tables 1 and 2) wild-type, feline IgG1a (antibody, part only; not given: Anti-TGFβ variable domains, antibody unnamed, part only)
heavy, part: B1 heavy, part
B4: mAb6 (felinized anti-TGFβ antibody of Tables 1 and 2) S428L, feline IgG1a (antibody, part only; not given: Anti-TGFβ variable domains, antibody unnamed, part only)
heavy, part: B1 heavy, part with S316L
B5: mAb3 (felinized anti-NGF antibody ZTS-768) WT, feline IgG1a (antibody)
heavy: DVQLVESGGDLVKPGGSLRLTCVASGFTYSNYWMHWVRQAPGKGLQWVARIDPYGGGTKHNEKFKRRFTISRDNAKNTLYLQMNSLKTEDTATYYCVRSGYDYYFDVWGQGTLVTVSSASTTAPSVFPLAPSCGTTSGATVALACLVLGYFPEPVTVSWNSGALTSGVHTFPAVLQASGLYSLSSMVTVPSSRWLSDTFTCNVAHPPSNTKVDKTVRKTDHPPGPKPCDCPKCPPPEMLGGPSIFIFPPKPKDTLSISRTPEVTCLVVDLGPDDSDVQITWFVDNTQVYTAKTSPREEQFNSTYRVVSVLPILHQDWLKGKEFKCKVNSKSLPSPIERTISKAKGQPHEPQVYVLPPAQEELSRNKVSVTCLIKSFHPPDIAVEWEITGQPEPENNYRTTPPQLDSDGTYFVYSKLSVDRSHWQRGNTYTCSVSHEALHSHHTQKSLTQSPGK
light: EIQMTQSPSSLSASPGDRVTITCRASENIYSFLAWYQQKPGKVPKLLIYNANTLAEGVPSRFSGSGSGTDFTLTISSLEPEDAATYYCQHHFGTPFTFGSGTKLEIKRSDAQPSVFLFQPSLDELHTGSASIVCILNDFYPKEVNVKWKVDGVVQNKGIQESTTEQNSKDSTYSLSSTLTMSSTEYQSHEKFSCEVTHKSLASTLVKSFQRSECQRE
notes: The same holds for all IgG1a variants of mAb3; also called mAb3 WT; mAb3 ID No. 88
B6: mAb3 (felinized anti-NGF antibody ZTS-768) S434H, feline IgG1a (antibody)
heavy: B5 heavy with S440H
light: B5 light
notes: also called mAb3 S434H; mAb3 ID No. 00

Columns and labels:
[1] = target: Feline FcRn (complex of FcRn-α subunit and β-microglobulin, C-terminal His tag) (feline); test: SPR Biacore, FcRn amine-coupled on CM5, pH 6
[2] = target: Feline FcRn (complex of FcRn-α subunit and β-microglobulin, C-terminal His tag) (feline); test: SPR Biacore, FcRn amine-coupled on CM5, pH 7.2
[3] = target: NGF (target of felinized anti-NGF antibodies mAb2 and mAb3); test: SPR Biacore T200, target amine-coupled, 15 C
[4] = target: NGF (target of felinized anti-NGF antibodies mAb2 and mAb3); test: cell-based or functional assay
[5] = target: TGFβ (target of felinized anti-TGFβ antibody mAb6); test: SPR Biacore T200, target amine-coupled, 15 C
[6] = target: TGFβ (target of felinized anti-TGFβ antibody mAb6); test: cell-based or functional assay
[7] = target: T2, Feline FcRn (complex of FcRn-α subunit and β-microglobulin, C-terminal His tag) (feline, UniProt A0ABI7ZNY9 23-296; Q5MGS7 21-118); test: SPR Biacore, FcRn amine-coupled on CM5, pH 7.2; pH 7.2; Table 2 run (FcRn amine-coupled on CM5)
T2 construct: treated here as one molecule
Protocol: (§1) Feline FcRn was isolated, prepared and mutant Fc IgGs were assayed against feline FcRn according to Strietzelg et. al. Standard RACE PCR was used to amplify feline FcRn-α subunit and β-microglobulin. FcRn-α subunit and β-microglobulin were co-transfected into HEK 293 cells and the FcRn complex was purified by IMAC affinity purification via the c-terminal His tag. KD's were measured by Biacore 3000 or Biacore T200 (GE Healthcare, Pittsburgh, PA, USA) using a CM5 sensor chip.
(§2) FcRn was immobilized on the surface of the sensor using the standard amine immobilization method to reach the desired surface density. HBS-EP was used as the immobilization running buffer and 10 mM MES; 150 mM NaCl; 0.005% Tween20; 0.5 mg/mL BSA; pH6 and pH7.2 and PBS; 0.005% Tween20; 0.5 mg/mL BSA; pH7.4 were used for method running buffers and titrations. Fc mutant IgGs were flowed over receptor surfaces and affinity was determined using Scrubber2 software analysis (BioLogic Software Pty, Ltd., Campbell, Australia) or T200 evaluation software (Table 2). Blank runs containing buffer only were subtracted out from all runs. Flow cells were regenerated using 50 mM Tris pH8. Runs were performed at 15° C.

[8] = target: T2, Feline FcRn (complex of FcRn-α subunit …); test: SPR Biacore, FcRn amine-coupled on CM5, pH 6; pH 6; Table 2 run (FcRn amine-coupled on CM5)
Protocol: as §1, §2

[9] = target: T1, NGF (target of felinized anti-NGF …); test: SPR Biacore T200, target amine-coupled, 15 C
Protocol: Affinity for each mAb was assessed by Biacore and the IC50 was determined via a suitable cell based potency assay.
Flow cell 1 was used as an internal reference to correct running buffer effects. Antibody binding was measured at 15° C. with a contact time of 250 s and flow rate of 30 μl/min. The dissociation period was 300 s. Regeneration was performed with regeneration buffers (10 mM Glycine pH1.5 and 10 mM NaOH) and flow rate at 20 μl/min for 60 s each. Running/dilution buffer (1×HBS-EP, GE Healthcare, BR-1006-69, 10× including 100 mM HEPES, 150 mM NaCl, 30 mM EDTA and 0.5% v/v surfactant P20, pH7.4, 1:10 in filtered MQ H2O) was used as negative control at the same assay format.
Data were analyzed with Biacore T200 Evaluation software by using the method of double referencing. The resulting curve was fitted with the 1:1 binding model. No differences in binding affinities or IC50 were observed between wild-type and 5434 and 5428 mutant IgGs (Table 1).

[10] = target: T1, NGF (target of felinized anti-NGF …); test: cell-based or functional assay
[11] = target: T2, Feline FcRn (complex of FcRn-α subunit …); test: SPR Biacore, biotin-FcRn on SA chip, pH 6; pH 6; Table 5A run (biotin-FcRn on SA chip), ID 88
Protocol: Feline FcRn was isolated, prepared and mutant Fc IgGs were assayed against feline FcRn according to Strietzel et. al., discussed above. Standard PCR was used to amplify feline FcRn-α subunit and β-microglobulin. FcRn-α subunit and β-microglobulin were co-transfected into HEK 293 cells and the FcRn complex was purified by IMAC affinity purification via the c-terminal His tag. FcRn complex was biotin labeled through BirA enzymatic biotinylatoin reaction. KD's were measured by Biacore T200 (GE Healthcare, Pittsburgh, PA, USA) or Biacore 8K (Cytiva, Marlborough, MA, USA) using a SA sensor chip.
FcRn was captured on the surface of the sensor using a modified SA capture method. 10 mM MES; 150 mM NaCl; 0.005% Tween20; 0.5 mg/mL BSA; pH6 was used as capture, method running buffer and titrations. 1×HBS-P, 0.5 mg/mL BSA; pH7.4 was also used for method running buffer and titrations. Fc mutant IgGs were flowed over receptor surfaces and affinity was determined using T200 evaluation software or Biacore Insight Evaluation software. Blank runs containing buffer only were subtracted out from all runs. Flow cells were regenerated using 50 mM Tris pH8 or pH9. Runs were performed at 15° C.

[12] = target: T2, Feline FcRn (complex of FcRn-α subunit …); test: SPR Biacore, biotin-FcRn on SA chip, pH 6
Outline: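 Feline FcRn α/β-microglobulin complex, expressed in HEK 293 cells, His-tag purified and BirA-biotinylated, was captured on an SA chip. Fc mutant IgGs flowed over at 15° C in MES/NaCl/Tween20/BSA at pH 6, or HBS-P/BSA at pH 7.4. KD from buffer-blank-subtracted runs; regeneration with 50 mM Tris pH 8 or 9.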

[13] = target: T2, Feline FcRn (complex of FcRn-α subunit …); test: SPR Biacore, FcRn amine-coupled on CM5, pH 7.2
Protocol: as §1, §2

[14] = target: T2, Feline FcRn (complex of FcRn-α subunit …); test: SPR Biacore, FcRn amine-coupled on CM5, pH 6
Protocol: as §1, §2

Feline FcRn (complex of FcRn-α subunit and β-microglobulin, C-terminal His tag) (feline), sequence (chain, as listed by the source, chain 1 of 2): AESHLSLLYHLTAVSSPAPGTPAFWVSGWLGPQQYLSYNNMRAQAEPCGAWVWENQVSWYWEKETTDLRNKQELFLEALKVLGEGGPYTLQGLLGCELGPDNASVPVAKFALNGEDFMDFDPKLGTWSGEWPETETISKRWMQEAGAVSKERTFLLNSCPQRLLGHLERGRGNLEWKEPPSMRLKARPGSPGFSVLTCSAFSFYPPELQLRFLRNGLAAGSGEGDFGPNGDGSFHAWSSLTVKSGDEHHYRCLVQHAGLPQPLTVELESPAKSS
Feline FcRn (complex of FcRn-α subunit and β-microglobulin, C-terminal His tag) (feline), sequence (Q5MGS7 21-118, chain 2 of 2): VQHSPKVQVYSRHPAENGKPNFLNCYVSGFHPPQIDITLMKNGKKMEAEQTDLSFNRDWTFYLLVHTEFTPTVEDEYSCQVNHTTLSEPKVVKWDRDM

Kd [1] [nM] | Kd [2] [nM] | Kd [3] [nM] | IC50 (cell based potency assay) [4] [nM] | Kd [5] [nM] | IC50 (cell based potency assay) [6] [nM] | Kd [9] [nM] | also measured | Binder
25 | 380 | 0.023 | 0.69 |  |  |  |  | B1
1.51 | 60 | 0.008 | 0.58 |  |  |  |  | B2
120 |  |  |  | 0.00375 | 9 |  |  | B3
15 | 230 |  |  | 0.0843 | 10 |  |  | B4
 |  |  |  |  |  | 0.000582 | Kd [7]: 8630 nM; Kd [8]: 2.95 nM; IC50 (cell based potency assay) [10]: 0.036 nM; Kd [11]: 26 nM | B5
 |  |  |  |  |  | 0.00132 | Kd [12]: 2.6 nM; Kd [13]: 0.524 nM; Kd [14]: 1.02 nM | B6
